Patent US9422369 (QUEEN MARY AND WESTFIELD COLLEGE, dated 2016)
Ends that are not written are not given here.

Biological target: T1, peptide antigen EDGIKRIQDDC-biotin (from AT1-receptor N-terminal region) (rat (sequence also found in human and …))
T1 construct: Coated on Maxisorp plates for the ELISA; also called antigenic peptide; biotinylated peptide antigen
T1 peptide: EDGIKRIQDDC-biotin
Assay: ELISA, coated EDGIKRIQDDC-biotin, anti-His-tag HRP detection; reference is the murine scFv
Experimental: IgM for comparative binding studies was purified as previously described for cellular invasion studies. The extinction coefficient used for IgM was 1.18 (Johnstone A, Thorpe R. *Immunochemistry in practice*. 2nd ed. Oxford: Blackwell Scientific Publications (1987)). Testing of Antigen Binding Using ELISA Enzyme-linked immunosorbant assays (ELISAs) were carried out in Maxisorp 96-well plates coated with Peptide antigen […]-biotin (SEQ ID NO: 14) (2-8 ug/ml in carbonate buffer pH 9.6) overnight at 4 or 37 C. The coated wells were blocked using 1% alkaline soluble casein (Blocking buffer) for 1 h at RT, then washed three times with PBS containing 0.1% v/v Tween 20. ScFv samples diluted between 1:1 to 1:100 in PBS-T were added and incubated for 1 h at RT before washing as before. A secondary HRP-conjugated anti-His-Tag antibody was then added (diluted 1:1000 in blocking buffer) for 1 h at RT. Wells were then washed three times in PBS-T then twice with PBS (without Tween 20). 100 µl of TMB substrate solution was added and colour was allowed to develop for 30 min, at which time 100 µl of 2M sulphuric acid was added to stop the reaction. Absorbance at 450 nm was read on a plate reading spectrophotometer. Protein concentrations were determined using an Eppendorf Biophotometer reading at 280 nm and using an extinction coefficient for the scFv of 1.7 as above.

B1: humanised scFv variant HuCY, His-tagged (scFv, V domains shown)
VH: QVQLVQSGPELVKPGASVKISCKASGYSFTGYNMNWVKQAPGKSLEWIGNIDPYYGGTTYNQKFKGKATLTVDKSSSTAYMQLKSLRSEDTAVYYCAREVDYWGQGTTVTVSS
notes: Resurfaced variant of 12D, changed only in the framework regions; not shown: C-terminal His-tag from the expression vector
- fold binding in ELISA against the murine scFv: 5 fold
